Laboratory results taken from US9782454B2 (LONGEVITY BIOTECH, INC., priority 2010, dated 2017).
Blank lines part the entries; values can stand above or below the molecule they belong to. Non-standard residues stand in square brackets, D forms with d. No end group written: not given here. ACPC = cyclic beta amino acid; APC = cyclic beta amino acid

What was measured:
[1] = biological target: T1, human calcitonin receptor (Homo sapiens, UniProt P30988); conditions: read-out: EC50, agonist for the human calcitonin receptor; cited from earlier work
T1 sequence (P30988 25-474): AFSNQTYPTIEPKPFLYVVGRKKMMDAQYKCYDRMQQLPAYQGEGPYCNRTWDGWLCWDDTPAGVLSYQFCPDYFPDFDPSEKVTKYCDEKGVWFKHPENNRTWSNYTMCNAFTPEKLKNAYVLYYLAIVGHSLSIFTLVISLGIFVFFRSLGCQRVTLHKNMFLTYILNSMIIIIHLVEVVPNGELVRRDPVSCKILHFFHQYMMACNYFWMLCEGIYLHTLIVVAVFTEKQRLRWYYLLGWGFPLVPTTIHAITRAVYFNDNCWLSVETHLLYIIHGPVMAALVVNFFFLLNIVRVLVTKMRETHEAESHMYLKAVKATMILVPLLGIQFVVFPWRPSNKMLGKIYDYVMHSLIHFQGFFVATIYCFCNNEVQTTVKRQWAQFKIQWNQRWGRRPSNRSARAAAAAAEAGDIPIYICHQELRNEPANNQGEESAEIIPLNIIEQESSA

[2] = biological target: VIPR2 (VPAC2) receptor, cAMP Hunter cell line expressing VIPR2 (UniProt P41587); assay: cell-based or functional assay
Glucagon receptor = biological target: T2, Glucagon receptor (Rattus norvegicus, UniProt P30082); conditions: cited from earlier work
T2 construct: Enhances glucose-stimulated; from tissue; host or cells: rat liver membranes (value quoted from the literature)

[3] = biological target: T3, VIPR1 (VPAC1) receptor, cAMP Hunter cell line expressing VIPR1 (UniProt P32241 31-457, limits assumed); assay: cell-based or functional assay
T3 sequence (looked up): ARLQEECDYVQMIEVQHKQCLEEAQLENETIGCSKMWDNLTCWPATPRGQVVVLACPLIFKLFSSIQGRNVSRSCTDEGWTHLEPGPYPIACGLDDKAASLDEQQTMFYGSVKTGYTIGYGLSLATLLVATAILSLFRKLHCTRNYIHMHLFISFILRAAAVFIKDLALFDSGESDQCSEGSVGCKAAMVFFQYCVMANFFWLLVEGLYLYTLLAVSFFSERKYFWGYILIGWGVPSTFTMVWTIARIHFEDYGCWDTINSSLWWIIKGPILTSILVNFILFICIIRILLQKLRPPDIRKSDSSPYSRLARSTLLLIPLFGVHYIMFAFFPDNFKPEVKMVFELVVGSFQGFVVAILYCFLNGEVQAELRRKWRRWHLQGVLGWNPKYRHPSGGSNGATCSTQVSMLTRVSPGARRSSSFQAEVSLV

VIPR2 (VPAC2) receptor, cAMP Hunter cell line expressing VIPR2, sequence (P41587 24-438 limits assumed): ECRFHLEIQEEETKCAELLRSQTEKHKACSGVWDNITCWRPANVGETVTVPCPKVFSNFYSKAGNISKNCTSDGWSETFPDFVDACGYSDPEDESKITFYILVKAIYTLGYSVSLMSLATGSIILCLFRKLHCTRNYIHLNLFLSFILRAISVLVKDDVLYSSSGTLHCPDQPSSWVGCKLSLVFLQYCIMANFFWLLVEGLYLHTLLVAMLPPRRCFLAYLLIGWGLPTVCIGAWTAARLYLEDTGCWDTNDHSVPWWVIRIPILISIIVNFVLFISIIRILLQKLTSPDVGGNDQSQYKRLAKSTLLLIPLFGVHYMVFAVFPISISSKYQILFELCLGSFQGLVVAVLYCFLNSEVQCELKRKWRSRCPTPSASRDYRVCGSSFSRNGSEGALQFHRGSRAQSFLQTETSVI
T2 sequence (P30082 27-485): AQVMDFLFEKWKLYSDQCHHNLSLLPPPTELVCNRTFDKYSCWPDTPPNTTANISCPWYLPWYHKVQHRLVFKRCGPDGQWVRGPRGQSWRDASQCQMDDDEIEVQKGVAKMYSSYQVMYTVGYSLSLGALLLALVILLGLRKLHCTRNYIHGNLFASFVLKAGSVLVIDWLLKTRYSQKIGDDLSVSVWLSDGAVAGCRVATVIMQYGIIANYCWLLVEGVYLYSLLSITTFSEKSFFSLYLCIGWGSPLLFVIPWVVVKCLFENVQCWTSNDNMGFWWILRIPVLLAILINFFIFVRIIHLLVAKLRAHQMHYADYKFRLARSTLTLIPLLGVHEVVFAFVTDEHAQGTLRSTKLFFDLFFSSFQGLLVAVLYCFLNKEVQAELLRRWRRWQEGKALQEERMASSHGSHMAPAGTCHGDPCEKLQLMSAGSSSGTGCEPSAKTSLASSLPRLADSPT

Molecule: PHM 27 (human) (HADGVFTSDFSKLLGQLSAKKYLESLM-NH2; UniProt P01282 81-107, looked up)
EC50 [1]: 11 nM

Molecule: des-His1-{Glu9}-Glucagon (1-29) amide
agonist activity at the glucagon receptor (Glucagon receptor): activation in rat liver membranes); displays no agonist activity. Enhances glucose-stimulated
pA2 for inhibition of glucagon-induced adenylyl cyclase activation in rat liver membranes (Glucagon receptor): (Glucagon receptor antagonist (pA2 = 7.2 for inhibition of glucagon-induced adenylyl cyclase

Now from value to molecule:

% Activity, cAMP agonist mode, at 1.00E-07 M (block headed Compound ID 9) [2]: 0.4%
% Activity, cAMP agonist mode, at 1.00E-08 M (block headed Compound ID 9) [2]: 1.2%
% Activity, cAMP agonist mode, at 1.00E-09 M (block headed Compound ID 9) [2]: 0.4%
% Activity, cAMP agonist mode, at 1.00E-10 M (block headed Compound ID 9) [2]: -1.1%
% Activity, cAMP agonist mode, at 1.00E-11 M (block headed Compound ID 9) [2]: 0.9%
% Activity, cAMP agonist mode, at 1.00E-12 M (block headed Compound ID 9) [2]: 0.4%
% Activity, cAMP agonist mode, at 5.00E-07 M (block headed Compound ID 9) [2]: 1.9%
% Activity, cAMP agonist mode, at 5.00E-08 M (block headed Compound ID 9) [2]: 0.9%
% Activity, cAMP agonist mode, at 5.00E-09 M (block headed Compound ID 9) [2]: 0.1%
% Activity, cAMP agonist mode, at 5.00E-10 M (block headed Compound ID 9) [2]: 1.5%
% Inhibition, cAMP antagonist mode against EC80 VIP, at 1.00E-07 M [2]: 6.5%
% Inhibition, cAMP antagonist mode against EC80 VIP, at 1.00E-08 M [2]: 9.4%
% Inhibition, cAMP antagonist mode against EC80 VIP, at 1.00E-09 M [2]: 6.5%
% Inhibition, cAMP antagonist mode against EC80 VIP, at 1.00E-10 M [2]: 4.2%
% Inhibition, cAMP antagonist mode against EC80 VIP, at 1.00E-11 M [2]: 8.7%
% Inhibition, cAMP antagonist mode against EC80 VIP, at 1.00E-12 M [2]: 3.7%
% Inhibition, cAMP antagonist mode against EC80 VIP, at 5.00E-07 M [2]: 8.4%
% Inhibition, cAMP antagonist mode against EC80 VIP, at 5.00E-08 M [2]: 6.2%
% Inhibition, cAMP antagonist mode against EC80 VIP, at 5.00E-09 M [2]: 10.9%
% Inhibition, cAMP antagonist mode against EC80 VIP, at 5.00E-10 M [2]: 12.7%
Mean RLU, cAMP agonist mode, at 1.00E-07 M (block headed Compound ID 9) [2]: 8920 RLU
Mean RLU, cAMP agonist mode, at 1.00E-08 M (block headed Compound ID 9) [2]: 9560 RLU
Mean RLU, cAMP agonist mode, at 1.00E-09 M (block headed Compound ID 9) [2]: 8560 RLU
Mean RLU, cAMP agonist mode, at 1.00E-10 M (block headed Compound ID 9) [2]: 7560 RLU
Mean RLU, cAMP agonist mode, at 1.00E-11 M (block headed Compound ID 9) [2]: 3280 RLU
Mean RLU, cAMP agonist mode, at 1.00E-12 M (block headed Compound ID 9) [2]: 9300 RLU
Mean RLU, cAMP agonist mode, at 5.00E-07 M (block headed Compound ID 9) [2]: 10200 RLU
Mean RLU, cAMP agonist mode, at 5.00E-08 M (block headed Compound ID 9) [2]: 9200 RLU
Mean RLU, cAMP agonist mode, at 5.00E-09 M (block headed Compound ID 9) [2]: 8560 RLU
Mean RLU, cAMP agonist mode, at 5.00E-10 M (block headed Compound ID 9) [2]: 3920 RLU
Mean RLU, cAMP antagonist mode against EC80 VIP, at 1.00E-07 M [2]: 79600 RLU
Mean RLU, cAMP antagonist mode against EC80 VIP, at 1.00E-08 M [2]: 77500 RLU
Mean RLU, cAMP antagonist mode against EC80 VIP, at 1.00E-09 M [2]: 79500 RLU
Mean RLU, cAMP antagonist mode against EC80 VIP, at 1.00E-10 M [2]: 81300 RLU
Mean RLU, cAMP antagonist mode against EC80 VIP, at 1.00E-11 M [2]: 78000 RLU
Mean RLU, cAMP antagonist mode against EC80 VIP, at 1.00E-12 M [2]: 81700 RLU
Mean RLU, cAMP antagonist mode against EC80 VIP, at 5.00E-07 M [2]: 64200 RLU
Mean RLU, cAMP antagonist mode against EC80 VIP, at 5.00E-08 M [2]: 79500 RLU
Mean RLU, cAMP antagonist mode against EC80 VIP, at 5.00E-09 M [2]: 76300 RLU
Mean RLU, cAMP antagonist mode against EC80 VIP, at 5.00E-10 M [2]: 74900 RLU
Molecule: VIP analogue Compound 8 (…XRLZKQLXVKZYLNXILN) (peptide)

EC50, cAMP agonist mode [3]: 28 nM
B1: VIP analogue Compound 8 (HSDAVFTDNYXRLZKQLXVKZYLNXILN) (peptide)
peptide: HSDAVFTDNY[ACPC]RL[APC]KQL[ACPC]VK[APC]YLN[ACPC]ILN
modifications: ends and bridges not checked
